Experimental data from the supplement of paper PMC10724198.
± gives the standard deviation of the averaged measurements.

Tested on: Saccharomyces cerevisiae
Experiment: protein stability index of tFT-peptide fusion (C-terminal peptide) (PSI (0-1 scale)); higher = more stable (slower turnover)
Conditions: genetic background: doa10 deletion; temperature: 30 C
Protocol: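 MPS profiling in S. cerevisiae of the tFT-X12 degron library: putative degron peptides plus stable controls, 12 aa, fused to the C-terminus of a sfGFP-mCherry timer. Cells are FACS-sorted into 8 mCherry/sfGFP bins and deep-sequenced. PSI runs from 0 (unstable) to 1 (stable). Backgrounds are wild type, das1Δ and doa10Δ at 30 °C, and wild type, das1Δ, cdc34-1 and cdc53-1 at 37 °C; 2-3 technical replicates each.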
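Further: PSI is a weighted mean of sequencing reads over stability bins, variants kept only with over 10 reads, mCherry proximal and sfGFP distal, peptide attached via GGGS linker.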

LVACLGYAVYCL and LVCFFLFSLFYL are within error of each other in protein stability index: 0.369 ± 0.015 for the first, 0.357 ± 0.015 for the second.

First: LVFCFRSLFLCS
Second: LVFRIRNANRLV
The protein stability index of the first is higher: 0.254 ± 0.014 for the first, 0.127 ± 0.015 for the second.

First: LVFSVIPVLFVL
Second: LVGTRTIFCFLH
The protein stability index of the first is higher: 0.328 ± 0.015 for the first, 0.207 ± 0.0076 for the second.

LVGWSWAACWLA and LVILRCAFPVYG are within error of each other in protein stability index: 0.292 for the first, 0.298 ± 0.014 for the second.

Going from LVLFVCFSLFMR to LVLPAFLLLLYP, the protein stability index rises from 0.219 ± 0.0087 to 0.509 ± 0.023.

First: LVLVLAVFGCHD
Second: LVNSPSISSLWL
The protein stability index of the first is lower: 0.284 ± 0.014 for the first, 0.6786 ± 0.0038 for the second.

Compared with LVSLLYFIVSLF, LVTRVFVYFSIG is higher in protein stability index: 0.241 ± 0.018 for the first, 0.323 ± 0.0055 for the second.

First: LVVEALFYVLVS
Second: LVVFFPVLPIFG
The protein stability index of the first is lower: 0.0851 ± 0.0085 for the first, 0.383 ± 0.014 for the second.

Going from LVVRLFVWDVVW to LWAVGWIIYFIV, the protein stability index falls from 0.224 ± 0.006 to 0.106 ± 0.026.

Going from LWLISTYQLIGI to MALAVRVVWCGA, the protein stability index falls from 0.431 ± 0.022 to 0.173 ± 0.0053.

Going from MCFFVFVLFLFC to MLVWCLFWVACV, the protein stability index falls from 0.2977 ± 0.0013 to 0.148 ± 0.011.

Going from MRMEGPLALSVR to MRVCLCLMLIVN, the protein stability index falls from 0.353 ± 0.019 to 0.143 ± 0.022.

First: NARNPKKNRDQI
Second: NFFYLFLSFGFG
The protein stability index of the first is higher: 0.633 ± 0.02 for the first, 0.46 ± 0.029 for the second.

NGSCRVVMYIKG and NKEEHQQKQRIH are within error of each other in protein stability index: 0.588 ± 0.027 for the first, 0.619 ± 0.057 for the second.

NKTTKNKKRKLS and NKYNQFKWHINH are within error of each other in protein stability index: 0.0924 ± 0.038 for the first, 0.134 ± 0.034 for the second.

Compared with NRLHYSPLYTIY, NSFASFVVVFVI is higher in protein stability index: 0.111 ± 0.011 for the first, 0.1956 ± 0.00071 for the second.

Going from NTDRRNICKISS to NTREGFIILARA, the protein stability index rises from 0.105 ± 0.0079 to 0.296 ± 0.0041.

PACFPPPSPFAP and PFDTPSHPNPLF are within error of each other in protein stability index: 0.718 ± 0.019 for the first, 0.711 ± 0.026 for the second.

First: PFGYYLFVPVCY
Second: PFLPFPPPLPAY
The protein stability index of the first is lower: 0.238 ± 0.0039 for the first, 0.362 ± 0.0056 for the second.

Going from PFYAYHFSLSVY to PIFFFGRLLFFL, the protein stability index rises from 0.0245 ± 0.0025 to 0.3094 ± 0.0008.

Compared with PLCCFFLLVCSH, PLFPPTDSPSPN is higher in protein stability index: 0.165 ± 0.0015 for the first, 0.685 ± 0.025 for the second.

Going from PLFVLTILLFLC to PLGGLVILLLSS, the protein stability index rises from 0.156 ± 0.0098 to 0.194 ± 0.0033.

Going from PLLALTSWLFFV to PLPHTPAPPPFP, the protein stability index rises from 0.165 ± 0.0048 to 0.674 ± 0.034.

First: PLSRLLPLYFLL
Second: PPHPLHIPRRLA
The protein stability index of the first is lower: 0.0797 ± 0.0046 for the first, 0.185 ± 0.0086 for the second.

Going from PPLSRLAVFIVV to PPRPSPPPHPLP, the protein stability index rises from 0.3027 ± 0.0018 to 0.681 ± 0.017.

Going from PPVRCVRLPLSS to PRFRALLLIPVR, the protein stability index falls from 0.647 ± 0.015 to 0.14 ± 0.026.

First: PRGFVRVDLLIF
Second: PRGKGSSGELCV
The protein stability index of the first is lower: 0.191 ± 0.0062 for the first, 0.6363 ± 0.0063 for the second.

Compared with PRPISRRTLILS, PRVPILVVFCSF is lower in protein stability index: 0.308 ± 0.0098 for the first, 0.22 ± 0.0097 for the second.

Compared with PSFVEVAFAVCC, PTKRLFNNNKKI is lower in protein stability index: 0.339 ± 0.03 for the first, 0.184 ± 0.0066 for the second.

PWAQCVLLWVVV and PWIASCRISFLL are within error of each other in protein stability index: 0.329 ± 0.015 for the first, 0.338 ± 0.0046 for the second.

First: QARVFWIIIGTA
Second: QFLSLSLPFALF
The protein stability index of the first is lower: 0.163 ± 0.011 for the first, 0.428 ± 0.041 for the second.

QHIDTLAKTHIT and QTGRVRGFVVSG are within error of each other in protein stability index: 0.605 ± 0.03 for the first, 0.645 ± 0.021 for the second.

First: RALCPVPLLASS
Second: RCFLPVFCFVVF
The protein stability index of the first is higher: 0.427 ± 0.026 for the first, 0.278 ± 0.014 for the second.

Compared with RDWCYFIRVCSV, RFACHDFVVLLC is lower in protein stability index: 0.364 ± 0.015 for the first, 0.172 ± 0.0095 for the second.

First: RFFLFVFFCFGF
Second: RFLCFDSVLTLC
The protein stability index of the first is higher: 0.402 ± 0.0047 for the first, 0.32119 ± 0.00015 for the second.

Compared with RFQKTRIFRCLC, RFTCCISLSFLM is higher in protein stability index: 0.0979 ± 0.0052 for the first, 0.491 ± 0.059 for the second.

Compared with RFTFSVVFCLSF, RGDWPVFIQVKA is lower in protein stability index: 0.451 ± 0.022 for the first, 0.205 ± 0.022 for the second.

First: RGGGGGTWVKMG
Second: RHCCIVPLCRVR
The protein stability index of the first is lower: 0.118 ± 0.025 for the first, 0.285 ± 0.013 for the second.

RHSFSRVKLIQF and RILKEFKRIAVL are within error of each other in protein stability index: 0.0871 ± 0.021 for the first, 0.093 ± 0.0061 for the second.

Same assay, conditions: genetic background: wild type; temperature: 30 C

LVACLGYAVYCL and LVCFFLFSLFYL are within error of each other in protein stability index: 0.394 ± 0.017 for the first, 0.358 ± 0.029 for the second.

Compared with LVFCFRSLFLCS, LVFRIRNANRLV is lower in protein stability index: 0.243 ± 0.019 for the first, 0.164 ± 0.026 for the second.

Going from LVFSVIPVLFVL to LVGTRTIFCFLH, the protein stability index falls from 0.318 ± 0.022 to 0.218 ± 0.026.

LVGWSWAACWLA and LVILRCAFPVYG are within error of each other in protein stability index: 0.298 ± 0.012 for the first, 0.332 ± 0.043 for the second.

Compared with LVLFVCFSLFMR, LVLPAFLLLLYP is higher in protein stability index: 0.168 ± 0.022 for the first, 0.309 ± 0.028 for the second.

Compared with LVLVLAVFGCHD, LVNSPSISSLWL is higher in protein stability index: 0.319 ± 0.036 for the first, 0.691 ± 0.018 for the second.

First: LVSLLYFIVSLF
Second: LVTRVFVYFSIG
The protein stability index of the first is lower: 0.254 ± 0.011 for the first, 0.35 ± 0.034 for the second.

First: LVVEALFYVLVS
Second: LVVFFPVLPIFG
The protein stability index of the first is lower: 0.107 ± 0.021 for the first, 0.408 ± 0.0064 for the second.

Going from LVVRLFVWDVVW to LWAVGWIIYFIV, the protein stability index falls from 0.266 ± 0.028 to 0.106 ± 0.011.

Going from LWLISTYQLIGI to MALAVRVVWCGA, the protein stability index falls from 0.451 ± 0.0091 to 0.207 ± 0.025.

Going from MCFFVFVLFLFC to MLVWCLFWVACV, the protein stability index falls from 0.269 ± 0.033 to 0.168 ± 0.025.

Compared with MRMEGPLALSVR, MRVCLCLMLIVN is lower in protein stability index: 0.403 ± 0.017 for the first, 0.148 ± 0.028 for the second.

Going from NARNPKKNRDQI to NFFYLFLSFGFG, the protein stability index falls from 0.666 ± 0.058 to 0.482 ± 0.03.

NGSCRVVMYIKG and NKEEHQQKQRIH are within error of each other in protein stability index: 0.61 ± 0.0079 for the first, 0.646 ± 0.049 for the second.

NKTTKNKKRKLS and NKYNQFKWHINH are within error of each other in protein stability index: 0.125 ± 0.067 for the first, 0.136 ± 0.0086 for the second.

Compared with NRLHYSPLYTIY, NSFASFVVVFVI is higher in protein stability index: 0.153 ± 0.015 for the first, 0.227 ± 0.036 for the second.

Compared with NTDRRNICKISS, NTREGFIILARA is higher in protein stability index: 0.1084 ± 0.00051 for the first, 0.349 ± 0.066 for the second.

PACFPPPSPFAP and PFDTPSHPNPLF are within error of each other in protein stability index: 0.696 ± 0.029 for the first, 0.729 ± 0.014 for the second.

First: PFGYYLFVPVCY
Second: PFLPFPPPLPAY
The protein stability index of the first is lower: 0.25 ± 0.027 for the first, 0.408 ± 0.018 for the second.

First: PFYAYHFSLSVY
Second: PIFFFGRLLFFL
The protein stability index of the first is lower: 0.0234 ± 0.0066 for the first, 0.314 ± 0.014 for the second.

First: PLCCFFLLVCSH
Second: PLFPPTDSPSPN
The protein stability index of the first is lower: 0.176 ± 0.0079 for the first, 0.648 ± 0.015 for the second.

Compared with PLFVLTILLFLC, PLGGLVILLLSS is higher in protein stability index: 0.137 ± 0.013 for the first, 0.224 ± 0.017 for the second.

Going from PLLALTSWLFFV to PLPHTPAPPPFP, the protein stability index rises from 0.173 ± 0.0033 to 0.676 ± 0.033.

Compared with PLSRLLPLYFLL, PPHPLHIPRRLA is higher in protein stability index: 0.0647 ± 0.0097 for the first, 0.218 ± 0.022 for the second.

Compared with PPLSRLAVFIVV, PPRPSPPPHPLP is higher in protein stability index: 0.353 ± 0.025 for the first, 0.686 ± 0.01 for the second.

First: PPVRCVRLPLSS
Second: PRFRALLLIPVR
The protein stability index of the first is higher: 0.6376 ± 0.0037 for the first, 0.17 ± 0.018 for the second.

Going from PRGFVRVDLLIF to PRGKGSSGELCV, the protein stability index rises from 0.208 ± 0.031 to 0.647 ± 0.033.

Compared with PRPISRRTLILS, PRVPILVVFCSF is lower in protein stability index: 0.354 ± 0.023 for the first, 0.257 ± 0.02 for the second.

First: PSFVEVAFAVCC
Second: PTKRLFNNNKKI
The protein stability index of the first is higher: 0.366 ± 0.0077 for the first, 0.161 ± 0.03 for the second.

PWAQCVLLWVVV and PWIASCRISFLL are within error of each other in protein stability index: 0.359 ± 0.025 for the first, 0.347 ± 0.012 for the second.

Going from QARVFWIIIGTA to QFLSLSLPFALF, the protein stability index rises from 0.194 ± 0.026 to 0.45 ± 0.019.

QHIDTLAKTHIT and QTGRVRGFVVSG are within error of each other in protein stability index: 0.634 ± 0.033 for the first, 0.65 ± 0.008 for the second.

First: RALCPVPLLASS
Second: RCFLPVFCFVVF
The protein stability index of the first is higher: 0.455 ± 0.018 for the first, 0.227 ± 0.023 for the second.

First: RDWCYFIRVCSV
Second: RFACHDFVVLLC
The protein stability index of the first is higher: 0.382 ± 0.021 for the first, 0.17 ± 0.029 for the second.

RFFLFVFFCFGF and RFLCFDSVLTLC are within error of each other in protein stability index: 0.365 ± 0.045 for the first, 0.348 ± 0.026 for the second.

First: RFQKTRIFRCLC
Second: RFTCCISLSFLM
The protein stability index of the first is lower: 0.117 ± 0.015 for the first, 0.489 ± 0.033 for the second.

Going from RFTFSVVFCLSF to RGDWPVFIQVKA, the protein stability index falls from 0.436 ± 0.026 to 0.255 ± 0.043.

Compared with RGGGGGTWVKMG, RHCCIVPLCRVR is higher in protein stability index: 0.135 ± 0.02 for the first, 0.321 ± 0.028 for the second.

RHSFSRVKLIQF and RILKEFKRIAVL are within error of each other in protein stability index: 0.0925 ± 0.033 for the first, 0.0985 ± 0.016 for the second.
